Test results from patent US20220324988A1.

Target: human CD40 expressed on cells (human) (UniProt P25942)
Test: cell-based or functional assay

Sequence of human CD40 expressed on cells (human) (P25942 21-277): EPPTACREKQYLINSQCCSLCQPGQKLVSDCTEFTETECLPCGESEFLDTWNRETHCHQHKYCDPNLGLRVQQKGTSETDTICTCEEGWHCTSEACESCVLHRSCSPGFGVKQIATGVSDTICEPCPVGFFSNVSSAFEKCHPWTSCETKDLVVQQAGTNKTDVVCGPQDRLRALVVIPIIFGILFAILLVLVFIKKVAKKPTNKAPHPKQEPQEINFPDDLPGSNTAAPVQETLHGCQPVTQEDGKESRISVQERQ

GFP positive rate for Jurkat/NF-kB-GFP+hCD40 single clones after CD40L stimulation (100 nM): 94.7%
Substance: CD40L (positive control, produced in 293F cells) (ligand)
